For this assay, the target named is CaV1.2 IQ domain TripleA mutant (CaV1.2 F1618A, F1619A, Y1622A) (human). Nature of the assay: ITC.

B1: CaBP1 C-terminal lobe (domain or fragment)
chain: IGVKELRDAFREFDTNGDGEISTSELREAMRKLLGHQVGHRDIEEIIRDVDLNGDGRVDFEEFVRMMSR
Take B1: the Kd worked out at 221 nM, the dH is -1.45 ± 0.14 kcal/mol and the “stoichiometry N” value was found to be 0.93 ± 0.01.

The values are drawn from paper PMC3839849 (Journal of molecular biology, 2013).
